Source: patent US20230406927A1 (REGENTS OF THE UNIVERSITY OF MINNESOTA, published 2023)

B1: anti-CD3-1DD fusion protein (VHH)
chain: MGHHHHHHEVQLLEEVQLVESGGGLVQPGGSLRLSCAASGFTFDDYGMSWVRQAPGKWLEWVSDISWNGGSTYYADSVKGRFTISRDNAENTLYLQMNSLKPDDTAVYYCAKMGEGGWGANDYWGQGTQVTVSSGGGASGGGGSGGGGSGISLIAALAVDRVIGMENAMPWNLPADLAWFKRNTLNKPVIMGRHTWESIGRPLPGRKNIILSSQPGTDDRVTWVKSVDEAIAAAGDVPEIMVIGGGRVYEQFLPKAQKLYLTHIDAEVEGDTHFPDYEPDDWESVFSEFHDADAQNSHSYSFEILERRGGISLIAALAVDRVIGMENAMPWNLPADLAWFKRNTLNKPVIMGRHTWESIGRPLPGRKNIILSSQPGTDDRVTWVKSVDEAIAAAGDVPEIMVIGGGRVYEQFLPKAQKLYLTHIDAEVEGDTHFPDYEPDDWESVFSEFHDADAQNSHSYSFEILERRGGGLKDYKDDDDK
notes: Anti-CD3 nanobody fused to an E. coli DHFR dimer (1DD); also called αCD3-1DD; anti-CD3-DHFR2 fusion protein
B2: hHINT1-anti-CD3-1DD fusion protein (VHH)
chain: MGHHHHHHMADEIAKAQVARPGGDTIFGKIIRKEIPAKIIFEDDRSLAFHDISPQAPTHFLVIPKKHISQISVAEDDDESLLGHLMIVGKKSAADLGLNKGYRMEVNEGSDGGQSVYHVHLHVLGGRQMHWPPGGGSGGGPLGVRGSGGELEVQLLEEVQLVESGGGLVQPGGSLRLSCAASGFTFDDYGMSWVRQAPGKWLEWVSDISWNGGSTYYADSVKGRFTISRDNAENTLYLQMNSLKPDDTAVYYCAKMGEGGWGANDYWGQGTQVTVSSGGGASGGGGSGGGGSGISLIAALAVDRVIGMENAMPWNLPADLAWFKRNTLNKPVIMGRHTWESIGRPLPGRKNIILSSQPGTDDRVTWVKSVDEAIAAAGDVPEIMVIGGGRVYEQFLPKAQKLYLTHIDAEVEGDTHFPDYEPDDWESVFSEFHDADAQNSHSYSFEILERRGGISLIAALAVDRVIGMENAMPWNLPADLAWFKRNTLNKPVIMGRHTWESIGRPLPGRKNIILSSQPGTDDRVTWVKSVDEAIAAAGDVPEIMVIGGGRVYEQFLPKAQKLYLTHIDAEVEGDTHFPDYEPDDWESVFSEFHDADAQNSHSYSFEILERRGGGLKDYKDDDDK
notes: Masked form; also called hHINT1-αCD3-1DD; HINT1-αCD3-1DD

Experiments:
[1] = target: T1, CD3ε receptor on the surface of T cells (human, UniProt P07766 23-207); test: dose-dependent titration by flow cytometry on T cells isolated from healthy donor blood; apparent KD
T1 construct: whole, on cells; The target stood on primary T cells, where CD3ε is part of the TCR/CD3 complex; also called human CD3ε; CD3 epsilon chain
T1 sequence (P07766 23-207): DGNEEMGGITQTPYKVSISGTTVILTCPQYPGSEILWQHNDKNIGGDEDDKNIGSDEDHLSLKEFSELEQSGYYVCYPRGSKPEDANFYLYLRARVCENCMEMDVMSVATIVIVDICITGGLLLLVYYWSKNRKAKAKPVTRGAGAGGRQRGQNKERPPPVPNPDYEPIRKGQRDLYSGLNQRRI
Method: (§1) The apparent affinity of the fusion proteins was determined using flow cytometry with T cells isolated from healthy donor blood.

[2] = target: T1, CD3ε receptor on the surface of T cells; test: ratio of apparent KD values from the flow cytometry titration on T cells; reference is unmasked anti-CD3-1DD
Method: as §1

| Binder | Kd [1] [nM] | fold reduction of binding affinity against anti-CD3-1DD [2] [fold] |
| --- | --- | --- |
| B1 | 100 |  |
| B2 | > 4000 | ~40 |
